Substrate: Oc1ccc2ccc3cccc4ccc1c2c34
Test: SULT1A3 inhibition studies, 1-HP initial-rate fluorescence assay
Type: biochemical, human
Conditions: other: WT enzyme; saturating PAPS (500 μM, 17 × Km); pH 7.5; 25.0 °C
Protocol: The initial rates of SULT catalyzed 1-HP sulfonation are plotted as a function of inhibitor concentration, and are normalized relative to [inhibitor]=0. Enzyme activity was monitored by the sulfonation dependent change in 1-HP fluorescence (λex=325 nm, λem=370 nm). Less than 5% of the concentration-limiting substrate converted at the reaction endpoint was consumed during initial-rate measurements. Each point is the average of three independent determinations. Conditions: SULT (20 nM, active sites), PAPS (0.50 mM, 17×Km), 1-HP (5.0 μM, 61×Km), KPO4 (50 mM), pH 7.5, 25±2° C.
(§1) Initial-Rate Studies. Initial-rate parameters for the labeled or mutant SULT1A3 constructs were determined using a previously described 1-HP assay (25). […] Reactions were monitored via fluorescence change associated with the conversion of 1-HP to 1-HP-S (λex=325 nm, λem=370 nm). […] Reaction progress curves were analyzed to obtain initial-rate parameters as described previously (26,27). […]
as §1, with “(47).” for “(25).”, “(48,49).” for “(26,27).”

B1: SULT1A3 (Homo sapiens) (protein)
chain: MELIQDTSRPPLEYVKGVPLIKYFAEALGPLQSFQARPDDLLINTYPKSGTTWVSQILDMIYQGGDLEKCNRAPIYVRVPFLEVNDPGEPSGLETLKDTPPPRLIKSHLPLALLPQTLLDQKVKVVYVARNPKDVAVSYYHFHRMEKAHPEPGTWDSFLEKFMAGEVSYGSWYQHVQEWWELSRTHPVLYLFYEDMKENPKREIQKILEFVGRSLPEETMDFMVQHTSFKEMKKNPMTNYTTVPQELMDHSISPFMRKGMAGDWKTTFTVAQNERFDADYAEKMAGCSLSFRSEL
notes: Wild-type and mutant SULT1A3 coding regions were inserted into a pGEX-6P expression vector; N-His/GST/MBP triple-tag (N, cleaved yes); made in house; host or cells: E. coli BL21(DE3)
- Km: 82 (3) nM
- kcat: 2 s⁻¹

Reference: patent publication US12291504B2, “Small molecule inhibition of sulfotransferase SULT1A3” (University of Pittsburgh—Of the Commonwealth System of …, priority 2018, dated 2025)
